{"source": "paper PMC6454211", "about": "(Biochemistry, 2018)", "binders": {"B1": {"name": "p85α cSH2 domain V663K/V667N/L687F/L691V/L696N (residues 614-724) (domain or fragment)", "chain": "EDLPHHDEKTWNVGSSNRNKAENLLRGKRDGTFLVRESSKQGCYACSVVKDGENKHCVINKTATGYGFAEPYNFYSSVKELVNHYQHTSLVQHNDSLNVTLAYPVYAQQRR"}}, "molecular_target": "Calmodulin (human full-length CaM, Ca2+-loaded) (human, UniProt P0DP23 1-149)", "assay": "cross-linking", "data": [{"binder": "B1", "values": [{"measurement": "binding result", "value": "binds"}]}]}
